Reference: patent US9580508B2, “Bispecific EGFR/c-Met antibodies” (Janssen Biotech, Inc., priority 2012, dated 2017)
Entries after “also recorded” stand apart in the source; their conditions may differ. Like-named read-outs stand apart in the source and are kept apart here.

Key:
[1] = tested on: H1975 cells expressing human HGF; test: H1975-HGF xenograft tumor efficacy; assay type: in vivo, nude mice; details: H1975-HGF NSCLC, day 16; mAbs 10 mg/kg BIWx3wk, erlotinib 50, afatinib 15 mg/kg QDx21d
H1975 cells = test: H1975 xenograft tumor efficacy; assay type: in vivo, nude mice; details: H1975 NSCLC, day 18, mAbs 10 mg/kg BIWx3wk, erlotinib 50, afatinib 15 mg/kg QDx21d
[2] = tested on: H292-HGF human lung cancer xenograft; test: H292-HGF human lung cancer xenograft: bispecific molecule versus other EGFR and c-Met inhibitors; details: mouse, in vivo
Description: (§1) The H292-HGF cells were maintained in vitro in RPMI1640 medium supplemented with fetal bovine serum (10% v/v), and L-glutamine (2 mM) at 37° C. in an atmosphere of 5% CO2 in air. The cells were routinely subcultured twice weekly by trypsin-EDTA treatment. The cells growing in an exponential growth phase were harvested and counted for tumor inoculation.
(§2) Each mouse was inoculated subcutaneously at the right flank region with H292-HGF tumor cells (2×10^6) in 0.1 ml of PBS with Cultrex (1:1) for tumor development. The treatments were started when the mean tumor size reached 139 mm^3. […] The date of tumor cell inoculation was denoted as day 0.
(§3) Before commencement of treatment, all animals were weighed and the tumor volumes were measured. Since the tumor volume can affect the effectiveness of any given treatment, mice were assigned into groups using randomized block design based upon their tumor volumes. […] The randomized block design was used to assign experimental animals to groups. First, the experimental animals were divided into homogeneous blocks according to their initial tumor volume. Secondly, within each block, randomization of experimental animals to treatments was conducted.
(§4) At the time of routine monitoring, the animals were checked for any effects of tumor growth and treatments on normal behavior, such as mobility, visual estimation of food and water consumption, body weight gain/loss (body weights were measured twice weekly), eye/hair matting and any other abnormal effect.
(§5) The endpoint was whether tumor growth can be delayed or tumor bearing mice can be cured. Tumor size was measured twice weekly in two dimensions using a caliper, and the volume was expressed in mm^3 using the formula: V=0.5 a×b^2 where a and b are the long and short diameters of the tumor, respectively. The tumor size was then used for calculations of both T-C and T/C values. T-C was calculated with T as the time (in days) required for the mean tumor size of the treatment group to reach 1000 mm^3, and C was the time (in days) for the mean tumor size of the control group to reach the same size. The T/C value (in percent) was an indication of antitumor efficacy; T and C were the mean tumor volume of the treated and control groups, respectively, on a given day. Complete tumor regression (CR) is defined as tumors that are reduced to below the limit of palpation (62.5 mm^3) Partial tumor regression (PR) is defined as tumors that are reduced from initial tumor volume. A minimum duration of CR or PR in 3 or more successive tumor measurements is required for a CP or PR to be considered durable.
(§6) Animals for which the body weight loss exceeded 20%, or for which the mean tumor size of the group exceeds 2000 mm^3 were euthanized. The study was terminated after two weeks of observation after the final dose.
(§7) Statistical analyses of difference in tumor volume among the groups were evaluated using a one-way ANOVA followed by individual comparisons using Games-Howell (equal variance not assumed). All data were analyzed using SPSS 18.0. p<0.05 was considered to be statistically significant.

[3] = tested on: H292-HGF human lung cancer xenograft
Description: as §1, §2, §3, §4, §5, §6, §7

NCI-H3255 cells = test: cells; details: Homo sapiens, […] HGF
Description: NCI-H3255 and HCC-827 cells were plated as described above in “Inhibition of Human Tumor Cell Growth or Viability by Antibodies”. […] Some wells were left untreated with either HGF or antibodies as controls. Cells were incubated at 37° C., 5% CO2 for 72 hours, then viable cells were detected using CellTiter-Glo® reagent (Promega), and data were analyzed as described above in “Inhibition of Human Tumor Cell Growth (NCI-H292 growth and NCI-H322 growth assay)”.

EGFR = molecular target: T1, EGFR (Homo sapiens, UniProt P00533); test: Inhibition of EGFR phosphorylation in NCI-H441 cells; assay type: cell-based
T1 construct: endogenous in cells; host or cells: NCI-H441
Description: NCI-H292, NCI-H441, or NCI-H596 cells were plated in 96 well plates in RPMI medium containing 10% FBS. 24 hours later, medium was replaced with serum free RPMI. […] Cells were treated for 1 h with the monospecific or bispecific molecules and then stimulated with EGF, HGF, or a combination of EGF and HGF for 15 minutes at 37° C., 5% CO2. Cells were lysed with MSD Lysis Buffer and cell signaling was assessed using appropriate MSD Assay plates, according to manufacturer's instructions, as described above.

NCI-H292 cells = test: HGF-induced NCI-H292 cell proliferation; assay type: cell-based, human; details: read-out: H292-HGF Proliferation inhibition in HGF-induced H292 cells (IC50)
From the text: The proliferation assay was completed using different combinations EGFR and c-Met binding FN3 domains either as a mixture or linked in a bispecific format. […] This confirmed that the avidity effect observed at the level of the receptors (FIG. 4 and FIG. 5) translates into an improvement in inhibiting cell signaling (Table 12) and cell proliferation (Table 13).
Select bispecific EGFR/c-Met molecules were characterized for their affinity to both EGFR and c-Met, their ability to inhibit EGFR and c-Met autophosphorylation, and their effect on proliferation of HGF cells. Binding affinity of the bispecific EGFR/c-Met molecules to recombinant EGFR and/or c-Met extracellular domain was further evaluated by surface Plasmon resonance methods using a Proteon Instrument (BioRad) according to protocol described in Example 3.

[4] = mouse, in vivo, ip
Description: SCID Beige mice were subcutaneously inoculated with NCI-H292 cells expressing human HGF (2.0×10^6 cells in Cultrex (Trevigen) in a volume of 200 μL) on the dorsal flank of each animal. Tumor measurements were taken twice weekly until tumor volumes ranged between 150-250 mm^3. Mice were then given a single i.p. dose of bispecific EGFR/c-Met molecules (linked to an albumin binding domain to increase half-life) or PBS vehicle. At 6 h or 72 h after dosing, tumors were extracted and immediately frozen in liquid nitrogen. […] Tumors were weighed, cut into small pieces, and lysed in Lysing Matrix A tubes (LMA) containing RIPA buffer with HALT protease/phosphatase inhibitors (Pierce), 50 mM sodium fluoride (Sigma), 2 mM activated sodium orthovanadate (Sigma), and 1 mM PMSF (MesoScale Discovery). Lysates were removed from LMA matrix and centrifuged to remove insoluble protein. The soluble tumor protein was quantified with a BCA protein assay and diluted to equivalent protein levels in tumor lysis buffer. Phosphorylated c-Met, EGFR and ERK were measured using assay plates from MesoScale Discovery (according to Manufacturer's protocol and as described above).

[5] = tested on: NCI-H292 cells expressing human HGF; test: H292-HGF xenograft tumor efficacy with four bispecific FN3 molecules; assay type: in vivo, SCID Beige mice; details: 25 mg/kg three times per week
Description: One week after implantation, mice were stratified into groups with equivalent tumor volumes (mean tumor volume=77.9+/−1.7 mm^3) Mice were dosed three times per week with the bispecific molecules and tumor volumes were recorded twice weekly.

## CN(C)C/C=C/C(=O)Nc1cc2c(Nc3ccc(F)c(Cl)c3)ncnc2cc1O[C@H]1CCOC1 [afatinib]
[1]
  % TGI (day of study); compared to PBS vehicle: 29 (16) %
H1975 cells
  % TGI (day of study); compared to PBS vehicle: 57 (18) %
H1975 cells; listed as Afatinib
  % TGI (day of study); compared to PBS vehicle: 57%

## C[C@@H](Oc1cc(-c2cnn(C3CCNCC3)c2)cnc1N)c1c(Cl)ccc(F)c1Cl [crizotinib, reference compound]
[2]
  Tolerability / body weight loss: More severe body weight loss
[3]; day 7 (start of treatment)
  Tumor volume (mm^3): 140 ± 9 mm^3
[3]; mouse, in vivo
  Antitumor activity / response: no antitumor activity
[3]; tumor growth delay vs vehicle
  T − C (days) at 1000 mm^3: -1 days

## C#Cc1cccc(Nc2ncnc3cc(OCCOC)c(OCCOC)cc23)c1 [erlotinib]
[1]
  % TGI (day of study); compared to PBS vehicle: 20 (16) %
[2]
  Tolerability / body weight loss: More severe body weight loss
H1975 cells
  % TGI (day of study); compared to PBS vehicle: 9 (18) %
NCI-H3255 cells; NCI-H3255, NCI-H3255, low attachment culture
  IC50: 47.1 nM
NCI-H3255 cells; NCI-H3255, NCI-H3255, standard 2D culture
  IC50: 122 nM

B1: ECB5: bispecific FN3: P53A1R5-17v2-(GGGGS)4-P114AR7P94-A3, SEQ ID NO: 54 (protein)
chain: MLPAPKNLVVSEVTEDSARLSWADPHGFYDSFLIQYQESEKVGEAIVLTVPGSERSYDLTGLKPGTEYTVSIYGVHNVYKDTNMRGLPLSAIFTTGGGGSGGGGSGGGGSGGGGSMLPAPKNLVVSRVTEDSARLSWTAPDAAFDSFWIRYFEFLGSGEAIVLTVPGSERSYDLTGLKPGTEYVVNIMGVKGGKISPPLSAIFTT
modifications: bispecific EGFR/cMet binding molecule
EGFR
  Fold decrease of IC50 for inhibition of EGFR phosphorylation, bispecific vs monospecific EGFR-binding FN3 domain: 30 fold

B2: ECB106: bispecific FN3: P54AR4-83v23-(AP)5-P114AR7P94-A3v22, SEQ ID NO: 65 (protein)
chain: MLPAPKNLVVSEVTEDSARLSWDDPHAFYESFLIQYQESEKVGEAIVLTVPGSERSYDLTGLKPGTEYTVSIYGVHNVYKDTNIRGLPLSAIFTTAPAPAPAPAPLPAPKNLVVSRVTEDSARLSWTAPDAAFDSFWIRYFEFLGSGEAIVLTVPGSERSYDLTGLKPGTEYVVNILGVKGGKISPPLSAIFTT
modifications: bispecific EGFR/cMet binding molecule
NCI-H292 cells
  IC50: 484 nM

B3: ECB108: bispecific FN3: P54AR4-83v23-(AP)5-P114AR9P122-A7v2, SEQ ID NO: 67 (protein)
chain: MLPAPKNLVVSEVTEDSARLSWDDPHAFYESFLIQYQESEKVGEAIVLTVPGSERSYDLTGLKPGTEYTVSIYGVHNVYKDTNIRGLPLSAIFTTAPAPAPAPAPLPAPKNLVVSRVTEDSARLSWTAPDAAFDSFWIRYFEFVSKGDAIVLTVPGSERSYDLTGLKPGTEYVVNILGVKGGSISPPLSAIFTT
modifications: bispecific EGFR/cMet binding molecule
NCI-H292 cells
  IC50: 11400 nM

B4: ECB15: bispecific FN3: P54AR4-83v2-(AP)5-P114AR7P94-A3, SEQ ID NO: 57 (protein)
chain: MLPAPKNLVVSEVTEDSARLSWDDPWAFYESFLIQYQESEKVGEAIVLTVPGSERSYDLTGLKPGTEYTVSIYGVHNVYKDTNMRGLPLSAIFTTAPAPAPAPAPLPAPKNLVVSRVTEDSARLSWTAPDAAFDSFWIRYFEFLGSGEAIVLTVPGSERSYDLTGLKPGTEYVVNIMGVKGGKISPPLSAIFTT
modifications: bispecific EGFR/cMet binding molecule
NCI-H292 cells
  IC50: 23 nM

B5: ECB109: bispecific FN3: P54AR4-83v23-(AP)5-P114AR7P95-C5v2, SEQ ID NO: 68 (protein)
chain: MLPAPKNLVVSEVTEDSARLSWDDPHAFYESFLIQYQESEKVGEAIVLTVPGSERSYDLTGLKPGTEYTVSIYGVHNVYKDTNIRGLPLSAIFTTAPAPAPAPAPLPAPKNLVVSRVTEDSARLSWTAPDAAFDSFWIRYFEFLGSGEAIVLTVPGSERSYDLTGLKPGTEYVVNILSVKGGSISPPLSAIFTT
modifications: bispecific EGFR/cMet binding molecule
NCI-H292 cells
  IC50: 574 nM

B6: ECB107: bispecific FN3: P54AR4-83v23-(AP)5-P114AR9P121-A6v2, SEQ ID NO: 66 (protein)
chain: MLPAPKNLVVSEVTEDSARLSWDDPHAFYESFLIQYQESEKVGEAIVLTVPGSERSYDLTGLKPGTEYTVSIYGVHNVYKDTNIRGLPLSAIFTTAPAPAPAPAPLPAPKNLVVSRVTEDSARLSWTAPDAAFDSFWIRYFEFVGSGEAIVLTVPGSERSYDLTGLKPGTEYVVNILGVKGGSISPPLSAIFTT
modifications: bispecific EGFR/cMet binding molecule
NCI-H292 cells
  IC50: 2640 nM

B7: ECB39: bispecific FN3 with albumin binding domain: P53A1R5-17v2/P114AR7P94-A3, SEQ ID NO: 121 (protein)
chain: MLPAPKNLVVSEVTEDSARLSWADPHGFYDSFLIQYQESEKVGEAIVLTVPGSERSYDLTGLKPGTEYTVSIYGVHNVYKDTNMRGLPLSAIFTTAPAPAPAPAPLPAPKNLVVSRVTEDSARLSWTAPDAAFDSFWIRYFEFLGSGEAIVLTVPGSERSYDLTGLKPGTEYVVNIMGVKGGKISPPLSAIFTTAPAPAPAPAPLAEAKVLANRELDKYGVSDYYKNLINNAKTVEGVKALLDEILAALP
modifications: Bispecific EGFR/c-Met binding molecule
[4]
  Tumor accumulation: significantly more tumor accumulation at 6 hours relative to the other molecules
[5]
  Tumor growth inhibition: showed the most efficacy

B8: ECB38: bispecific FN3 with albumin binding domain: P54AR4-83v2/P114AR7P94-A3, SEQ ID NO: 120 (protein)
chain: MLPAPKNLVVSEVTEDSARLSWDDPWAFYESFLIQYQESEKVGEAIVLTVPGSERSYDLTGLKPGTEYTVSIYGVHNVYKDTNMRGLPLSAIFTTAPAPAPAPAPLPAPKNLVVSRVTEDSARLSWTAPDAAFDSFWIRYFEFLGSGEAIVLTVPGSERSYDLTGLKPGTEYVVNIMGVKGGKISPPLSAIFTTAPAPAPAPAPLAEAKVLANRELDKYGVSDYYKNLINNAKTVEGVKALLDEILAALP
modifications: Bispecific EGFR/c-Met binding molecule
[3]; 25 mg/kg, 3 times/week×3 weeks
  Mice in which the treatment was tolerated: 7 out of 10
[3]; day 7 (start of treatment)
  Tumor volume (mm^3): 137 ± 7 mm^3
[3]; day 9
  Tumor volume (mm^3): 142 ± 7 mm^3
[3]; day 13
  Tumor volume (mm^3): 83 ± 6 mm^3
[3]; day 16
  Tumor volume (mm^3): 44 ± 7 mm^3
[3]; day 20
  Tumor volume (mm^3): 30 ± 6 mm^3
[3]; day 27
  Tumor volume (mm^3): 21 ± 5 mm^3
[3]; day 30
  Tumor volume (mm^3): 23 ± 6 mm^3
[3]; mouse, in vivo
  Tolerability / body weight loss: Slight toxicity
[3]; mouse, in vivo, listed as bispecific EGFR/c-Met molecule
  Antitumor activity / response: complete tumor regression (CR) in all mice; also recorded: complete response
[5]
  Tumor growth inhibition: showed the most efficacy
